According to the RNAGym collection of RNA variant scans (doi:10.7554/elife.80360):

B1: Hammerhead Ribozyme (parent)
chain: ACCGGAUGUGCUUUCCGGUCUGAUGAGUCCGUGAGGACGAAACAG

Variants of: B1
Assay: self-cleavage, relative activity (ratio to wild type); higher = more cleavage; co-transcriptional

First: U12G A23G
Second: G18C G25C
The self-cleavage of the first is higher: 0.407 for the first, 0.347 for the second.

Compared with G33C A41G, C15A U32A is higher in self-cleavage: 0.273 for the first, 0.782 for the second.

Compared with G4A, C15U A34G is higher in self-cleavage: 0.602 for the first, 0.813 for the second.

Going from C3G G22A to U13C G22U, the self-cleavage rises from 0.304 to 0.346.

First: U13C G22A
Second: A6C G27C
The self-cleavage of the first is lower: 0.243 for the first, 0.478 for the second.

Going from C11A U24C to A23G G45A, the self-cleavage falls from 1.13 to 0.331.

Going from G22U C38A to U24G G31A, the self-cleavage rises from 0.305 to 0.992.

Going from C30G G36U to C30G G36A, the self-cleavage falls from 0.697 to 0.553.

Compared with C15U A37C, A6C C38U is lower in self-cleavage: 0.714 for the first, 0.67 for the second.

First: G27A A42C
Second: G4U C38G
The self-cleavage of the first is lower: 0.308 for the first, 0.323 for the second.

Going from G33A C38G to G27U G31A, the self-cleavage falls from 0.854 to 0.529.

Compared with C11G U14A, G5U G17C is lower in self-cleavage: 1.25 for the first, 0.309 for the second.

Going from G5U G17A to U28C A34C, the self-cleavage rises from 0.337 to 0.684.

Compared with C2A U12A, U21G A23U is lower in self-cleavage: 0.62 for the first, 0.448 for the second.

Going from G8C C30G to U21A A26U, the self-cleavage falls from 0.886 to 0.356.

First: U7G U14C
Second: G31C G33A
The self-cleavage of the first is lower: 0.944 for the first, 1.08 for the second.

First: C20U G31A
Second: G22C C30A
The self-cleavage of the first is higher: 0.783 for the first, 0.346 for the second.

First: A40U
Second: G8C G36U
The self-cleavage of the first is lower: 0.366 for the first, 0.772 for the second.

Compared with C2U G36U, G5C A34U is lower in self-cleavage: 0.488 for the first, 0.477 for the second.

Going from A1C G27A to U24A G31A, the self-cleavage rises from 0.332 to 1.15.

Compared with G8U G10A, U24A A40G is lower in self-cleavage: 1.47 for the first, 0.337 for the second.

First: U19A G31U
Second: G5U G18C
The self-cleavage of the first is higher: 0.402 for the first, 0.33 for the second.

First: A1G G35A
Second: G17U G18C
The self-cleavage of the first is higher: 1.23 for the first, 0.503 for the second.

Going from U9G G39A to C16A G31U, the self-cleavage rises from 0.307 to 1.29.

First: G17C A44G
Second: A1C G10C
The self-cleavage of the first is higher: 0.664 for the first, 0.397 for the second.

First: U13C U24G
Second: C2U A26U
The self-cleavage of the first is lower: 0.837 for the first, 0.89 for the second.

Going from C20G U21G to G17C A41C, the self-cleavage falls from 0.376 to 0.272.

First: U14C A41G
Second: G10U C30U
The self-cleavage of the first is lower: 0.312 for the first, 1.07 for the second.

First: G10U C30G
Second: G31C A37C
The self-cleavage of the first is lower: 1 for the first, 1.05 for the second.

First: G25C C30U
Second: C15G A37U
The self-cleavage of the first is lower: 0.314 for the first, 0.367 for the second.

First: G25C A40U
Second: C20G G36U
The self-cleavage of the first is higher: 0.332 for the first, 0.305 for the second.

First: C20G G36C
Second: C30A A37C
The self-cleavage of the first is lower: 0.274 for the first, 0.428 for the second.

First: G5A A6U
Second: C43A A44U
The self-cleavage of the first is higher: 0.696 for the first, 0.391 for the second.

Compared with C16A G22C, C16A G22U is higher in self-cleavage: 0.294 for the first, 0.329 for the second.

Going from A40C G45C to C15U G31C, the self-cleavage rises from 0.399 to 0.967.

Going from A26U C30U to G8U A26C, the self-cleavage falls from 0.703 to 0.596.

Going from A40C A42G to G25C A26C, the self-cleavage rises from 0.314 to 0.355.

First: C2U G5A
Second: C38G A42G
The self-cleavage of the first is higher: 0.633 for the first, 0.321 for the second.

First: G5A A42C
Second: A34C C43A
The self-cleavage of the first is higher: 0.359 for the first, 0.309 for the second.

Going from A6C A26G to U12C U14G, the self-cleavage rises from 0.147 to 0.902.

First: U12C A26U
Second: G27C U32A
The self-cleavage of the first is higher: 0.854 for the first, 0.716 for the second.

Compared with C43U G45A, G25U A26G is lower in self-cleavage: 0.419 for the first, 0.298 for the second.

First: G8C C43U
Second: C15G U21C
The self-cleavage of the first is higher: 0.455 for the first, 0.275 for the second.

Compared with C2U A42U, U21A A37U is higher in self-cleavage: 0.301 for the first, 0.502 for the second.

First: C30A A40C
Second: C30A A40U
The self-cleavage of the first is higher: 0.466 for the first, 0.347 for the second.

First: G10U G35A
Second: G5A A23G
The self-cleavage of the first is higher: 0.838 for the first, 0.385 for the second.

Going from G39U A42G to C43G G45A, the self-cleavage falls from 0.342 to 0.327.

Going from G4C A41C to G36A A41G, the self-cleavage rises from 0.316 to 0.344.

First: A6U G18A
Second: C11A A44C
The self-cleavage of the first is lower: 0.34 for the first, 0.569 for the second.

Compared with G22U U24A, U13A A26U is higher in self-cleavage: 0.316 for the first, 0.976 for the second.

Going from C3A C29A to G22A G35U, the self-cleavage falls from 0.406 to 0.328.

First: C2U U28C
Second: U14A A37U
The self-cleavage of the first is higher: 0.79 for the first, 0.618 for the second.

Going from C3G A23U to G35C C43A, the self-cleavage rises from 0.242 to 0.352.

Going from C11A G45C to A26G G36A, the self-cleavage falls from 0.97 to 0.319.

Going from U14A C38A to A26G C29U, the self-cleavage falls from 0.54 to 0.365.

First: G25U A41C
Second: C30G A44U
The self-cleavage of the first is lower: 0.316 for the first, 0.367 for the second.

Compared with A1U G5A, A37C A41U is lower in self-cleavage: 0.491 for the first, 0.296 for the second.

Going from A6U C15U to G10U U14A, the self-cleavage rises from 0.708 to 0.822.

Compared with C29U C43A, U19G U32C is higher in self-cleavage: 0.337 for the first, 0.449 for the second.

Going from U21A G25C to G35A A42U, the self-cleavage falls from 0.312 to 0.29.

Compared with C3A G5A, U14G G18C is higher in self-cleavage: 0.319 for the first, 0.533 for the second.

Compared with U13C A41U, G17C G45C is higher in self-cleavage: 0.362 for the first, 0.4 for the second.

Compared with U7A U9C, U12C G25A is lower in self-cleavage: 1.04 for the first, 0.352 for the second.

Going from G8A G36C to C11G G22C, the self-cleavage falls from 0.508 to 0.338.

Going from A23C C38A to G17U U21A, the self-cleavage rises from 0.327 to 0.591.

Going from C3A G33U to A23C A37U, the self-cleavage falls from 0.733 to 0.42.

First: G17U U32A
Second: G4C C30A
The self-cleavage of the first is higher: 0.764 for the first, 0.594 for the second.

Going from A37C A42U to G4C U14A, the self-cleavage rises from 0.27 to 0.512.

Going from G4A C15G to G5U A40G, the self-cleavage falls from 0.419 to 0.35.

First: G5A U19A
Second: G5A U19G
The self-cleavage of the first is higher: 0.382 for the first, 0.373 for the second.

Going from A40C A44U to C20U G27U, the self-cleavage falls from 0.347 to 0.332.

Going from U7A C38A to U24C A34C, the self-cleavage rises from 0.49 to 0.746.

First: U12C A34G
Second: G27A G45A
The self-cleavage of the first is higher: 1.09 for the first, 0.416 for the second.

First: U7C U13G
Second: C16G C38G
The self-cleavage of the first is higher: 0.7 for the first, 0.358 for the second.

Compared with U7G U28G, A26U G45U is lower in self-cleavage: 0.502 for the first, 0.476 for the second.

Compared with C2A G17A, G4U U19G is lower in self-cleavage: 0.364 for the first, 0.343 for the second.

Compared with U12G U14A, U12G U14G is higher in self-cleavage: 0.832 for the first, 0.961 for the second.

Going from G4C U24G to C3U A34C, the self-cleavage rises from 0.599 to 0.851.

Compared with C2U G10U, G39C A44G is lower in self-cleavage: 1.39 for the first, 0.638 for the second.

First: A1G A41U
Second: C2A G27U
The self-cleavage of the first is higher: 0.42 for the first, 0.32 for the second.

Going from C2A G27C to C2A A34G, the self-cleavage rises from 0.339 to 0.48.

First: G33U A40U
Second: G5C G36U
The self-cleavage of the first is higher: 0.391 for the first, 0.33 for the second.

Compared with C11G C38U, U7A C29U is lower in self-cleavage: 1.09 for the first, 0.823 for the second.

In the case of G4A G45U, the self-cleavage is reported as 0.418.
